The source of these data is patent US20170306037A1 (Novartis, published 2017).

The Kd is the free concentration of one partner at which half of the binding sites on the other are occupied at equilibrium, for simple one-to-one binding.

Assay [1] concerns the target T1, Recombinant human GITR and human Fc fusion protein (hGITR-hFc) (human, UniProt Q9Y5U5 26-162, limits assumed, biotinylated in the ForteBio Octet assays (sites not given)).
T1 construct: also called biotinylated hGITR-hFc; not shown: human Fc
T1 sequence: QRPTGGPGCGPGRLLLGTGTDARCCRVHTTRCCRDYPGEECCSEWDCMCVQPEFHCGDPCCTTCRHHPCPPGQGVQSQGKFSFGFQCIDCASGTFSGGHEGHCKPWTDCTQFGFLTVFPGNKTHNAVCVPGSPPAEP
Nature of the assay: ForteBio Octet QK, streptavidin biosensors coated with biotinylated hGITR-hFc. The text has this: Human germline residues incorporated into the optimized reference MAB1opFab in FR1 and FR3 are those specified by the PCR primers used to amplify the human V-segment repertoire and thus are present in all members of the Humaneered® Antibody V-region libraries. The optimized reference Fab is constructed to assess whether or not any of the changes to human germline alter the properties of Fab binding.
On the technique in general: BLI is a label-free optical method that tracks binding on a fibre tip over time.

Assay [2] has as its target T2, mouse GITR extracellular domain (mouse, UniProt O35714 20-153).
T2 construct: extracellular domain; also called murine GITR; rodent GITR
T2 sequence (looked up): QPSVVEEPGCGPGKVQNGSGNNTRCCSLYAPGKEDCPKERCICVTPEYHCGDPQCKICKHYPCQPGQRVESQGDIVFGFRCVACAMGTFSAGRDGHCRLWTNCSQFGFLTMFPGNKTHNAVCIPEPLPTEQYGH
The assay is described as follows: ELISA on coated GITR ECD. How it is done: (§1) The plate was blocked with a solution of 1% BSA in PBS for one hour at room temperature and then rinsed three times with PBST. The MAB was then diluted to 0.5 μg/mL or 1 μg/mL in PBS and 20 μL was added to each well. The plate was incubated for 1 hour at room temperature and then washed three times with PBST. […] The plate was incubated for 1 hour at room temperature, and then washed six times with PBST. 25 μL of SureBlue TMB (KPL 52-00-02) substrate was added to each well and the plate was incubated for about 10 min at room temperature.
On the technique in general: An ELISA detects its analyte on a solid surface through an enzyme-linked reagent.

For assay [3], the target named is T3, human GITR extracellular domain (hGITR ECD) (human, UniProt Q9Y5U5 26-162).
T3 construct: also called human GITR ECD
T3 sequence: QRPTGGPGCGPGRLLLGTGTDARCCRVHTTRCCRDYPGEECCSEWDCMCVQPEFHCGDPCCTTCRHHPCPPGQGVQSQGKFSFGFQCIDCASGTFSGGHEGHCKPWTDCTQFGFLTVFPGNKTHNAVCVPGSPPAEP
Nature of the assay: ELISA on coated GITR ECD. How it is done:
as §1

The target of assay [4] is T4, human GITR expressed on cells (human, UniProt Q9Y5U5 27-241).
T4 construct: also called hGITR; 293 cells stably transfected with human GITR
T4 sequence: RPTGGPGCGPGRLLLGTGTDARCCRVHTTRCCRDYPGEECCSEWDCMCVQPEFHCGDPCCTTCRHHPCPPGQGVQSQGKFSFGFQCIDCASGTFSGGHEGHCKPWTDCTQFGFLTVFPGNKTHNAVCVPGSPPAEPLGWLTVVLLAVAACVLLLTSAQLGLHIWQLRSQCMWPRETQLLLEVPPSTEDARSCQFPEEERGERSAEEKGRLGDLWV
The assay is described as follows: FACS competition on hGITR stable HEK293 cells: ligand titrated first, then 4 nM MAB7 as competitor, PE anti-human detection. How it is done: The ability of MAB to block ligand binding was assessed using HEK293 NFκB reporter parental cells and hGITR stable cells were used in competition binding assays and FACS analysis. Briefly, harvested cells were plated 1×10⁶ cells per mL, 100 μL per well to a 96 well round bottom FACS plate (Corning), then resuspended in 200 μL of cold FACS buffer (1×PBS+1% FBS-HI+0.1% sodium azide) per well. […] Plates were incubated for 1 hour on ice protected from light, cells washed, then prepared 4 nM isotype control or MAB solutions were prepared and added to appropriate wells at 100 μL per well and plates were incubated for 1 hour on ice protected from light, cells washed, then PE-conjugated goat-anti-human detection antibody (Jackson ImmunoResearch) prepared at 1:100 dilution in FACS buffer was added at 100 μL per well and plates were incubated for 30 minutes on ice protected from light. Cells were washed in FACS buffer then cells were fixed with 100 μL per well of BD CytoFix (BD Biosciences) and incubated for further 15 minutes on ice protected from light.

Assay [5] addresses T4, human GITR expressed on cells. Nature of the assay: cell-based or functional assay.
Assay [6] has as its target T1, Recombinant human GITR and human Fc …. Nature of the assay: ForteBio Octet, Fab on human GITR (biotinylated hGITR-hFc sensors per paragraph 356); experiment b.
Assay [7] shares this target. Nature of the assay: ForteBio Octet, Fab on human GITR (biotinylated hGITR-hFc sensors per paragraph 356); experiment c.
Assay [8] addresses cyno GITR (cGITR), form not stated (cynomolgus monkey). The assay is described as follows: Biacore (SPR), IgG. Background: In SPR one partner is held on a chip, and binding of the other changes the refractive index at the surface.
Assay [9] has as its target T5, human GITR (hGITR), form not stated (human, UniProt Q9Y5U5 26-162, limits assumed).
T5 construct: the construct is not described
T5 sequence: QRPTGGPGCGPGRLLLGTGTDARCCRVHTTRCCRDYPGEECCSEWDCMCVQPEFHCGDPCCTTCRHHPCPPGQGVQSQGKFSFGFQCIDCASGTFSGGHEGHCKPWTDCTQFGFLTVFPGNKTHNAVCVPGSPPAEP
Nature of the assay: Biacore (SPR), IgG.

Assay [10] has as its target T1, Recombinant human GITR and human Fc …. Nature of the assay: ForteBio Octet, Fab on human GITR (biotinylated hGITR-hFc sensors per paragraph 356); experiment a.

B1: MAB1rFab (reference Fab of MAB1) (Fab, V domains shown)
VH: QVQLKESGPGLVAPSQSLSITCTVSGFSLRSYGVDWVRQPPGKGLEWLGVIWGGGGTNYNSALMAKLSISKDKSKSQVFLKMNSLQTDDTAMYYCAKHAYGHDGGFAMDYWGQGTSVTVSS
VL: EIVMTQSPKSMSMSVGERVTLSCKASENVDTFVSWYQQKPDHSPKLLIYGASNRYTGVPDRFTGSGSATDFTLTISSVQAEDLADYHCGQSYSYPFTFGSGTKLEIK
For B1, the binding result in assay [1] is on record as “binds”.

B2: MAB1 (murine monoclonal GITR agonist antibody) (antibody, V domains shown)
VH: QVQLKESGPGLVAPSQSLSITCTVSGFSLRSYGVDWVRQPPGKGLEWLGVIWGGGGTNYNSALMAKLSISKDKSKSQVFLKMNSLQTDDTAMYYCAKHAYGHDGGFAMDYWGQGTSVTVSS
VL: NIVMTQSPKSMSMSVGERVTLSCKASENVDTFVSWYQQKPDHSPKLLIYGASNRYTGVPDRFTGSGSATDFTLTISSVQAEDLADYHCGQSYSYPFTFGSGTKLEIK
notes: Mouse hybridoma antibody; also called parental mouse antibody MAB1; MAB1 parental Ab
Regarding B2, the binding result in [2] is reported as “no binding”; in assay [3] it was “binds”.

B3: recombinant human GITR ligand (GITR-L) (ligand, UniProt Q9UNG2 52-177, looked up)
chain: ETAKEPCMAKFGPLPSKWQMASSEPPCVNKVSDWKLEILQNGLYLIYGQVAPNANYNDVAPFEVRLYKNKDMIQTLTNKSKIQNVGGTYELHVGDTIDLIFNSEHQVLKNNTYWGIILLANPQFIS
Take B3: the “IC50 (read off the curve)” value in [4] was ~0.2 molar ratio of Human GITR Ligand to MAB7 (MAB7 at 4 nM). In assay [5], the “EC50, NFκB-luciferase reporter in 293 cells overexpressing human GITR” value was around 65 nM.

B4: MAB6 (IgG1 kappa) (antibody, V domains shown)
VH: EVQLVESGGGLVQSGGSLRLSCAASGFSLSSYGVDWVRQAPGKGLEWLGVIWGGGGTYYTSSLMARFTISRDNSKNTLYLQMNSLRAEDTAVYYCAKHAYGHDGGFAMDYWGQGTLVTVSS
VL: EIVMTQSPATLSVSPGERATLSCRASESVSSNVAWYQQRPGQAPRLLIYGASNRATGIPARFSGSGSGTDFTLTISRLEPEDFAVYYCGQSYSYPFTFGQGTKLEIKR
With B4, the binding result in assay [2] is listed as “no binding (tested: 0.5 µg/mL or 1 µg/mL)”.

B5: MAB5 Fab (human full-chain Fab) (Fab, V domains shown)
VH: EVQLVESGGGLVQSGGSLRLSCAASGFSLSSYGVDWVRQAPGKGLEWLGVIWGGGGTYYTSSLMGRFTISRDNSKNTLYLQMNSLRAEDTAVYYCAKHAYGHDGGFAMDYWGQGTLVTVSS
VL: EIVMTQSPATLSVSPGERATLSCRASESVSSNVAWYQQRPGQAPRLLIYGASNRATGIPARFSGSGSGTDFTLTISRLEPEDFAVYYCGQSYSYPFTFGQGTKLEIK
notes: human kappa constant; also called MAB5(b)
In the case of B5, the dissociation constant Kd in assay [6] is 3.74 nM.

B6: MAB6 Fab (human full-chain Fab) (Fab, V domains shown)
VH: EVQLVESGGGLVQSGGSLRLSCAASGFSLSSYGVDWVRQAPGKGLEWLGVIWGGGGTYYTSSLMARFTISRDNSKNTLYLQMNSLRAEDTAVYYCAKHAYGHDGGFAMDYWGQGTLVTVSS
VL: EIVMTQSPATLSVSPGERATLSCRASESVSSNVAWYQQRPGQAPRLLIYGASNRATGIPARFSGSGSGTDFTLTISRLEPEDFAVYYCGQSYSYPFTFGQGTKLEIK
notes: human kappa constant; also called MAB6(c)
As for B6, the Kd in assay [7] stood at 5.94 nM.

B7: MAB4 Fab (human full-chain Fab) (Fab, V domains shown)
VH: EVQLVESGGGLVQSGGSLRLSCAASGFSLSSYGVDWVRQAPGKGLEWVGVIWGGGGTYYASSLMGRFTISRDNSKNTLYLQMNSLRAEDTAVYYCAKHAYGHDGGFAMDYWGQGTLVTVSS
VL: EIVMTQSPATLSVSPGERATLSCRASESVSSNVAWYQQRPGQAPRLLIYGASNRATGIPARFSGSGSGTDFTLTISRLEPEDFAVYYCGQSYSYPFTFGQGTKLEIK
notes: human kappa constant; also called MAB4(b)
As for B7, the Kd in [6] was determined as 2.43 nM.

B8: MAB7 (IgG1 kappa) (antibody, V domains shown)
VH: EVQLVESGGGLVQSGGSLRLSCAASGFSLSSYGVDWVRQAPGKGLEWVGVIWGGGGTYYASSLMGRFTISRDNSKNTLYLQMNSLRAEDTAVYYCARHAYGHDGGFAMDYWGQGTLVTVSS
VL: EIVMTQSPATLSVSPGERATLSCRASESVSSNVAWYQQRPGQAPRLLIYGASNRATGIPARFSGSGSGTDFTLTISRLEPEDFAVYYCGQSYSYPFTFGQGTKLEIKR
notes: MAB4 with the glycation site KH changed to RH
On to B8, for which the Kd in [8] worked out at 3.67 nM; in [9] it was 4.29 nM. The binding result in assay [2] is listed as “no binding (tested: not on the sheet; paragraph 336: 0.5 or 1 µg/mL)”.

B9: MAB3 Fab (human full-chain Fab) (Fab, V domains shown)
VH: QVQLVESGGGLVQPGGSLRLSCAASGFSLSSYGVDWVRQAPGKGLEWLGVIWGGGGTYYTASLMGRFTISRDNSKNTLYLQMNSLRAEDTAVYYCAKHAYGHDGGFAMDYWGQGTLVTVSS
VL: EIVMTQSPATLSVSPGERATLSCRASQSVSSNLAWYQQKPGQAPRLLIYGASNRATGIPDRFSGSGSGTDFTLTISRLEPEDFAVYYCGQSYSYPFTFGQGTKLEIK
notes: human kappa constant; also called MAB3(a)
As for B9, in assay [10], the Kd came out at 2.98 nM.

B10: MAB8 (IgG1 kappa) (antibody, V domains shown)
VH: EVQLVESGGGLVQSGGSLRLSCAASGFSLSSYGVDWVRQAPGKGLEWVGVIWGGGGTYYASSLMGRFTISRDNSKNTLYLQMNSLRAEDTAVYYCARNAYGHDGGFAMDYWGQGTLVTVSS
VL: EIVMTQSPATLSVSPGERATLSCRASESVSSNVAWYQQRPGQAPRLLIYGASNRATGIPARFSGSGSGTDFTLTISRLEPEDFAVYYCGQSYSYPFTFGQGTKLEIKR
notes: MAB4 with the glycation site KH changed to RN
Consider B10, for which the binding result in [2] is “no binding (tested: 0.5 µg/mL or 1 µg/mL)”; in [3], “binds”.

B11: MAB2 Fab (human full-chain Fab) (Fab, V domains shown)
VH: QVQLVESGGGLVQPGGSLRLSCAASGFSLSSYGVDWVRQAPGKGLEWVGVIWGGGGTYYASSVMARFTISRDNSKNTLYLQMNSLRAEDTAVYYCAKHAYGHDGGFAMDYWGQGTLVTVSS
VL: EIVMTQSPATLSVSPGERATLSCRASESVSSNVAWYQQRPGQAPRLLIYGASNRATGIPARFSGSGSGTDFTLTISRLEPEDFAVYYCGQSYSYPFTFGQGTKLEIK
notes: human kappa constant; purified on Ni-NTA; also called MAB2(a)
Regarding B11, in assay [10], the Kd came out at 6.84 nM.
